Source: patent publication US11130803B2, “Isoform-selective TGFβ1 inhibitors and use thereof” (Scholar Rock, Inc., priority 2018, dated 2021)
Residue numbers refer to the chain shown, from its start.

B1: Ab15: monoclonal antibody; VH SEQ ID NO: 245, VL SEQ ID NO: 241 (antibody, V domains shown)
VH: EVQLVESGGGVVQPGRSLRLSCAASGFTFSDYAMVWVRQAPGKGLEWVSAISGSGFTTYYADSVKGRFTISRDNSKNTLYLQMNSLRAEDTAVYYCARVSSGHWDFDYWGQGTLVTVSS
VL: DIQLTQSPSSLSASVGDRVTITCRASQSISSYLNWYQQKPGKAPKLLIYAASNLQSGVPSRFSGSGSGTDFTLTISSLQPEDFATYYCQQTYTVPLTFGGGTKVEIK
B2: Ab16: monoclonal antibody; VH SEQ ID NO: 247, VL SEQ ID NO: 241 (antibody, V domains shown)
VH: B1 VH with V5L, V11L, R16G, D31N, V35S
VL: B1 VL
B3: Ab17: monoclonal antibody; VH SEQ ID NO: 248, VL SEQ ID NO: 241 (antibody, V domains shown)
VH: B1 VH with V5L, R16G, D31S, Y32F, V35T, F56A, T57A, Y60F
VL: B1 VL
B4: Ab18: monoclonal antibody; VH SEQ ID NO: 249, VL SEQ ID NO: 241 (antibody, V domains shown)
VH: B1 VH with E1Q, F56A, T57A, Y60F, R98T
VL: B1 VL

Molecular target: T1, recombinant human LTBP1-proTGFβ1 complex (Homo sapiens, UniProt P01137)
T1 construct: made in house; host or cells: Expi293F cells, transient co-transfection
T1 sequence (P01137 30-390): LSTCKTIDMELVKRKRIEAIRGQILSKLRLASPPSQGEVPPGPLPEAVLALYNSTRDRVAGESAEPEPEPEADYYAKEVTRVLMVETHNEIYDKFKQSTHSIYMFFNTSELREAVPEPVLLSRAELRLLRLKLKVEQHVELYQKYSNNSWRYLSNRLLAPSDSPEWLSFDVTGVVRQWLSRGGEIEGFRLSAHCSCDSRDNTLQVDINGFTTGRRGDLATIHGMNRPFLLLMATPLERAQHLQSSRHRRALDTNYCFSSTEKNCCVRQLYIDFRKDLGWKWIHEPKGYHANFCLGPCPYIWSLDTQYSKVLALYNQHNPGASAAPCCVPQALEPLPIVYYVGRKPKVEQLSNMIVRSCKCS
T1 sequence (Q14766 873-1507 partner): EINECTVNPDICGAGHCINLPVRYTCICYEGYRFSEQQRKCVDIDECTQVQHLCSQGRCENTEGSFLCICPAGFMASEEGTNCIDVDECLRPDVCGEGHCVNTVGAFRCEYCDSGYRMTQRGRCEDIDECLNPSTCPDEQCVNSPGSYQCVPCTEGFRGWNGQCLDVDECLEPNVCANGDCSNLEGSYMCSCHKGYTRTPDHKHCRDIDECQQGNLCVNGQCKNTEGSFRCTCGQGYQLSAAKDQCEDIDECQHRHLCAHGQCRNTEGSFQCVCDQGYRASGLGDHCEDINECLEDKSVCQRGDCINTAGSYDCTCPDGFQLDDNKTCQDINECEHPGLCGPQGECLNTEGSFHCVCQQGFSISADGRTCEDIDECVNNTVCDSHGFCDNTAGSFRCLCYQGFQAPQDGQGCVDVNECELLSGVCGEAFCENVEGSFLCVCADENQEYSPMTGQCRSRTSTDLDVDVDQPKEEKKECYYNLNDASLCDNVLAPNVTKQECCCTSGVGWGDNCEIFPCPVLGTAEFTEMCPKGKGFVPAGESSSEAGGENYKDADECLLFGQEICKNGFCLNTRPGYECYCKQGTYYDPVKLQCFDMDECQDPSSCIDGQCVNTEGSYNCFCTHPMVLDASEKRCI
Test: Octet (Biolayer Interferometry) in vitro kinetic binding
Conditions: in M
Source text: (§1) Biolayer Interferometry (BLI):BLI is a label-free technology for optically measuring biomolecular interactions, e.g., between a ligand immobilized on the biosensor tip surface and an analyte in solution. BLI provides the ability to monitor binding specificity, rates of association and dissociation, or concentration, with precision and accuracy. BLI platform instruments are commercially available, for example, from ForteBio and are commonly referred to as the Octet® System.
(§2) BLI-based binding assays are widely used in the art for measuring affinities and kinetics of antibodies to antigens. It is a label-free technology in which biomolecular interactions are analyzed on the basis of optical interference. One of the proteins, for example, an antibody being tested, can be immobilized on the biosensor tip. When the other protein in solution, for example, an antigen, becomes bound to the immobilized antibody, it causes a shift in the interference pattern, which can be measured in real-time. This allows the monitoring of binding specificity, rates of association and dissociation, as well as concentration dependency. […] Due to its ease of use and fast results, BLI-based assays such as the Octet® system (available from ForteBio/Molecular Devices, Fremont Calif.), are particularly convenient when used as an initial screening method to identify and separate a pool of “binders” from a pool of “non-binders” or “weak binders” in the screening process.
(§3) Table 8 below provides non-limiting examples of high-affinity, context-independent proTGFβ1 antibodies encompassed by the present invention. The table provides representative results from in vitro binding assays, as measured by Octet®.
(§4) Column (A) of the table lists monoclonal antibodies with discrete amino acid sequences. […] Columns (B), (D), (E) and (F) provide affinities of each of the listed antibodies, measured in KD. […] Average KD values of (B) and (C) are shown in the corresponding column (D), which collectively represents affinities of the antibodies to ECM- or matrix-associated proTGFβ1 complexes. Similarly, Average KD values of (E) and (F) are shown in the corresponding column (G), which collectively represents affinities of the antibodies to cell-surface or cell-associated proTGFβ1 complexes. Finally, relative ratios between the average KD values from columns (D) and (G) are expressed as “fold bias” in column (H). Thus, the greater the number of column (H) is, the greater bias exists for the particular antibody, when comparing binding preferences of the antibody for matrix-associated complexes and cell-surface complexes. This is one way of quantitatively representing and comparing inherent bias of antibodies to their target complexes. Such analyses may be useful in guiding the selection process for a candidate antibody for particular therapeutic use.
(§5) In some embodiments, the binding affinity of an antibody, or antigen binding portion thereof, to an antigen (e.g., protein complex), such as presenting molecule-proTGFβ1 complexes, is determined using an Octet assay. In some embodiments, an Octet assay is an assay that determines one or more a kinetic parameters indicative of binding between an antibody and antigen. In some embodiments, an Octet® system (ForteBio, Menlo Park, Calif.) is used to determine the binding affinity of an antibody, or antigen binding portion thereof, to presenting molecule-proTGFβ1 complexes. For example, binding affinities of antibodies may be determined using the fortéBio Octet QKe dip and read label free assay system utilizing bio-layer interferometry. In some embodiments, antigens are immobilized to biosensors (e.g., streptavidin-coated biosensors) and the antibodies and complexes (e.g., biotinylated presenting molecule-proTGFβ1 complexes) are presented in solution at high concentration ([…]) to measure binding interactions. […]

Molecule	(B) hLTBP1, Matrix-associated proTGFb1 (KD)
B1	1.50E−10
B2	1.81E−10
B3	1.74E−10
B4	3.12E−10

Molecular target: T2, recombinant human LTBP3-proTGFβ1 complex (Homo sapiens, UniProt P01137)
T2 construct: made in house; host or cells: Expi293F cells, transient co-transfection
T2 sequence (P01137 30-390): as the sequence (P01137 30-390) above
T2 sequence (Q9NS15 866-1039 partner limits assumed): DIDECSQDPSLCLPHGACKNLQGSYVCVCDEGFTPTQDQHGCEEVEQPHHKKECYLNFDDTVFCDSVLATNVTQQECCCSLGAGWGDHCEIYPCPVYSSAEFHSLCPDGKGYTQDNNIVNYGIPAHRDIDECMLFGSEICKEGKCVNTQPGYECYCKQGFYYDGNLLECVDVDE
Test: as above
Conditions: in M
Source text: as §1, §2, §3, §4, §5

Molecule	(C) hLTBP3, Matrix-associated proTGFb1 (KD)
B1	1.68E−10
B2	1.32E−10
B3	2.08E−10
B4	2.57E−10

Molecular target: T3, recombinant human LRRC33-proTGFβ1 complex (Homo sapiens, UniProt P01137)
T3 construct: made in house
T3 sequence (P01137 30-390): as the sequence (P01137 30-390) above
T3 sequence (Q86YC3 19-650 partner limits assumed): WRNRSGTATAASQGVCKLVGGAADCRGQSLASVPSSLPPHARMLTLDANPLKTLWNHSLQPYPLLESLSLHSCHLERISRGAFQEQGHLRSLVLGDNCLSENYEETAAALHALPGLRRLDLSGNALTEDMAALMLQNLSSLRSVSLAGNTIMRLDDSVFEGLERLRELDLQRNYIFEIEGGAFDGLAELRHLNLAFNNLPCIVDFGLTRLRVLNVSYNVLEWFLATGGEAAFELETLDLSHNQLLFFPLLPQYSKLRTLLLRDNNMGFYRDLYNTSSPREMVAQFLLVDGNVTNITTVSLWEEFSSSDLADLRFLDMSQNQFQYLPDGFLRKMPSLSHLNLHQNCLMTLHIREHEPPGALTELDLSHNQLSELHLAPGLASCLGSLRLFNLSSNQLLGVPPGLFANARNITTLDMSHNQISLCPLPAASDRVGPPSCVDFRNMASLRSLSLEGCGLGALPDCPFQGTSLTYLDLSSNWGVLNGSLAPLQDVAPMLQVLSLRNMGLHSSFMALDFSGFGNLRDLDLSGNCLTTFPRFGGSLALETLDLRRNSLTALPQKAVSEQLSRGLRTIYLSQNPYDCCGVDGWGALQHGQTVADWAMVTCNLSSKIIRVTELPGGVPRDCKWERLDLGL
Test: as above
Conditions: in M
Source text: as §1, §2, §3, §4, §5

Molecule	(F) hLRRC33, Cell-associated proTGFb1 (KD)
B1	7.02E−10
B2	6.31E−10
B3	6.58E−10
B4	1.02E−09

Molecular target: T4, recombinant human GARP-proTGFβ1 complex (Homo sapiens, UniProt P01137)
T4 construct: made in house
T4 sequence (P01137 30-390): as the sequence (P01137 30-390) above
T4 sequence (Q14392 20-627 partner limits assumed): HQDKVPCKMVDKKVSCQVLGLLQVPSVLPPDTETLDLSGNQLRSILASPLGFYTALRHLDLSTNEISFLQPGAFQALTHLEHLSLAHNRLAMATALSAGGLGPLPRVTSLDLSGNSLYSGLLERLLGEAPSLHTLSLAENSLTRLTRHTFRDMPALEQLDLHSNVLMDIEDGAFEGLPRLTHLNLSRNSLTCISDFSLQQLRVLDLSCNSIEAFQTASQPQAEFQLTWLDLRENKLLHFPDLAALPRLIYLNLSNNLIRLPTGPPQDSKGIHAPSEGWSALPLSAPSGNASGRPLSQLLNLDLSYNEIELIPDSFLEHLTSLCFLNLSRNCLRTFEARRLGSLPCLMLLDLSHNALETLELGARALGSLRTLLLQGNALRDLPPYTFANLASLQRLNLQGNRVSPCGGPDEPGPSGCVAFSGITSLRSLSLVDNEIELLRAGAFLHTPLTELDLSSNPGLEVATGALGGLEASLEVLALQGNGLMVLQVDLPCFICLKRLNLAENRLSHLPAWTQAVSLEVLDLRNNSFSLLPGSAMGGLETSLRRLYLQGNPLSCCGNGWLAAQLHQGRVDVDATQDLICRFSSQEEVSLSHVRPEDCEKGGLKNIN
Test: as above
Conditions: in M
Source text: as §1, §2, §3, §4, §5

Molecule	(E) hGARP, Cell-associated proTGFb1 (KD)
B1	7.01E−09
B2	4.16E−09
B3	8.62E−09
B4	1.15E−08

System: matrix-associated (LTBP1/LTBP3) and cell-associated (GARP/LRRC33) proTGFβ1 complexes
Test: Octet: average KD and fold bias, matrix- vs cell-associated complexes
Format: binding, human
Conditions: average KD of (E) and (F), cell-associated complexes, read-out: (G) Cell AVRG
Source text: Column (A) of the table lists monoclonal antibodies with discrete amino acid sequences. […] Columns (B), (D), (E) and (F) provide affinities of each of the listed antibodies, measured in KD. […] Average KD values of (B) and (C) are shown in the corresponding column (D), which collectively represents affinities of the antibodies to ECM- or matrix-associated proTGFβ1 complexes. Similarly, Average KD values of (E) and (F) are shown in the corresponding column (G), which collectively represents affinities of the antibodies to cell-surface or cell-associated proTGFβ1 complexes. Finally, relative ratios between the average KD values from columns (D) and (G) are expressed as “fold bias” in column (H). […] This is one way of quantitatively representing and comparing inherent bias of antibodies to their target complexes.
Average KD values between the two matrix-associated and cell-associated complexes are calculated, respectively (see columns (D) and (G)). These average KD values can then be used to ask whether bias in binding activities exists between complexes associated with matrix vs. complexes associated with cell surface (e.g., immune cells). Bias may be expressed as “fold-difference” in the average KD values, as illustrated in Table 8.

Molecule	Kd [nM]
B1	3.86
B2	2.4
B3	4.64
B4	6.26

Same assay, conditions: ratio of average KD cell-associated / matrix-associated

Molecule	(H) G/D (fold bias) [fold]
B1	24.25
B2	15.307
B3	24.288
B4	22.00

System: matrix-associated (LTBP1/LTBP3) and cell-associated (GARP/LRRC33) proTGFβ1 complexes
Test: as above
Format: binding, human
Conditions: average KD of (B) and (C), read-out: (D) ECM AVRG

Molecule	Kd [nM]
B1	0.159
B2	0.157
B3	0.191
B4	0.284

System: mouse models of injury, Marfan's syndrome, and muscular dystrophy
Test: not given
Conditions: in vivo; cited from earlier work

Molecule	muscle pathology and fibrosis
CCCCc1nc(Cl)c(CO)n1Cc1ccc(-c2ccccc2-c2nn[nH]n2)cc1 [losartan]	effective in improving muscle pathology and reducing fibrosis
Cc1ccc(C(=O)Nc2ccc(S(=O)(=O)O)c3cc(S(=O)(=O)O)cc(S(=O)(=O)O)c23)cc1NC(=O)c1cccc(NC(=O)Nc2cccc(C(=O)Nc3cc(C(=O)Nc4ccc(S(=O)(=O)O)c5cc(S(=O)(=O)O)cc(S(=O)(=O)O)c45)ccc3C)c2)c1 [suramin]	effective in improving muscle pathology and reducing fibrosis
